Data: patent US20200024330A1

Legend:
[1] = target: WT JR-FL gp120 (HIV-1 (isolate JR-FL)); test: ELISA on coated gp120; EC50 by nonlinear regression
[2] = target: JR-FL gp120 ΔV3 (HIV-1 (isolate JR-FL)); test: as above
[3] = target: JR-FL gp120 ΔV1/ΔV2 (HIV-1 (isolate JR-FL)); test: as above
[4] = target: Env of the clade D HIV-1 pseudoviruses of the cross-clade 162-pseudovirus panel (n = 25); test: cell-based or functional assay
[5] = target: HIV-1 92RW020 envelope glycoprotein (Env) (HIV-1); test: cell-based or functional assay
[6] = target: HIV-1 MGRM-C-028 envelope glycoprotein (Env) (HIV-1); test: cell-based or functional assay
[7] = target: HIV-1 MGRM-A-010 envelope glycoprotein (Env) (HIV-1); test: cell-based or functional assay
[8] = target: HIV-1 93UG077 envelope glycoprotein (Env) (HIV-1); test: cell-based or functional assay
[9] = target: HIV-1 APV13 envelope glycoprotein (Env) (HIV-1); test: cell-based or functional assay
[10] = target: HIV-1 Env of isolate JR-CSF (HIV-1) (UniProt P20871); test: cell-based or functional assay
[11] = target: HIV-1 92BR020 envelope glycoprotein (Env) (HIV-1); test: cell-based or functional assay
[12] = target: HIV-1 93IN905 envelope glycoprotein (Env) (HIV-1); test: cell-based or functional assay
[13] = target: Env of the clade AG HIV-1 pseudoviruses of the cross-clade 162-pseudovirus panel (n = 10); test: cell-based or functional assay
[14] = target: Env of the clade B HIV-1 pseudoviruses of the cross-clade 162-pseudovirus panel (n = 31); test: cell-based or functional assay
[15] = target: HIV-1 MGRM-C-026 envelope glycoprotein (Env) (HIV-1); test: cell-based or functional assay
[16] = target: HIV-1 MGRM-C-027 envelope glycoprotein (Env) (HIV-1); test: cell-based or functional assay
[17] = target: HIV-1 APV6 envelope glycoprotein (Env) (HIV-1); test: cell-based or functional assay
[18] = target: Env of all HIV-1 pseudoviruses of the cross-clade 162-pseudovirus panel (n = 162); test: cell-based or functional assay
[19] = target: HIV-1 JRFL envelope glycoprotein (Env) (HIV-1); test: cell-based or functional assay
[20] = target: HIV-1 NL43 envelope glycoprotein (Env) (HIV-1); test: cell-based or functional assay
[21] = target: Env of the clade A HIV-1 pseudoviruses of the cross-clade 162-pseudovirus panel (n = 26); test: cell-based or functional assay
[22] = target: Env of the clade G HIV-1 pseudoviruses of the cross-clade 162-pseudovirus panel (n = 15); test: cell-based or functional assay
[23] = target: Env of the clade F HIV-1 pseudoviruses of the cross-clade 162-pseudovirus panel (n = 15); test: cell-based or functional assay
[24] = target: HIV-1 Env of isolate 93IN905 (HIV-1); test: cell-based or functional assay
[25] = target: HIV-1 94UG103 envelope glycoprotein (Env) (HIV-1); test: cell-based or functional assay
[26] = target: Env of the clade C HIV-1 pseudoviruses of the cross-clade 162-pseudovirus panel (n = 27); test: cell-based or functional assay
[27] = target: HIV-1 JRCSF envelope glycoprotein (Env) (HIV-1) (UniProt P20871); test: cell-based or functional assay
[28] = target: HIV-1 APV17 envelope glycoprotein (Env) (HIV-1); test: cell-based or functional assay
[29] = target: HIV-1 Env of isolate MGRM-C-026 (HIV-1); test: cell-based or functional assay

B1: PGT-136 (antibody, V domains shown)
VH: QLQLQESGPGLVKPSETLSLTCTVSGGSMRGTDWGENDFHYGWIRQSSAKGLEWIGSIHWRGRTTHYKTSFRSRATLSIDTSNNRFSLTFSFVTAADTAVYYCARHKYHDIFRVVPVAGWFDPWGQGLLVTVSS
VL: EIVMTQSPPTLSVSPGETATLSCRASQNVKNNLAWYQLKPGQAPRLLIFDASSRAGGIPDRFSGSGYGTDFTLTVNSVQSEDFGDYFCQQYEEWPRTFGQGTKVDIK
For B1, the EC50 [1] was 0.2 µg/mL, the EC50 [2] was 0.1 µg/mL and the EC50 [3] was 0.3 µg/mL. For the same binder, the Median IC50 against viruses neutralized with an IC50 <50 µg/ml [4] was 0.05 µg/mL, the IC50 neutralization [5] was 0.738 µg/mL and the IC50 neutralization [6] was over 10 µg/mL. For the same binder, the IC50 neutralization [7] was over 10 µg/mL, the IC50 neutralization [8] was over 10 µg/mL and the IC50 neutralization [9] was over 10 µg/mL. The Primary Neutralization Index (B cell culture well 5329 C19) [10] was 0.9, the Primary Neutralization Index (B cell culture well 5366 P21) [10] was 1.1 and the IC50 neutralization [11] was over 10 µg/mL. The IC50 neutralization [12] was 0.0135 µg/mL, the Median IC50 against viruses neutralized with an IC50 <50 µg/ml [13] was 29.1 µg/mL and the Median IC50 against viruses neutralized with an IC50 <50 µg/ml [14] was 13.2 µg/mL. It also gave an IC50 neutralization [15] of 0.0065 µg/mL, an IC50 neutralization [16] of over 10 µg/mL and an IC50 neutralization [17] of over 10 µg/mL. The Median IC50 against viruses neutralized with an IC50 <50 µg/ml [18] was 7.81 µg/mL, the IC50 neutralization [19] was over 10 µg/mL and the IC50 neutralization [20] was over 10 µg/mL. The Median IC50 against viruses neutralized with an IC50 <50 µg/ml [21] was 2.34 µg/mL, the Median IC50 against viruses neutralized with an IC50 <50 µg/ml [22] was 18.9 µg/mL and the Median IC50 against viruses neutralized with an IC50 <50 µg/ml [23] was 4.75 µg/mL. The Primary Neutralization Index (B cell culture well 5329 C19) [24] was 5.6, the Primary Neutralization Index (B cell culture well 5366 P21) [24] was 5.5 and the IC50 neutralization [25] was over 10 µg/mL. It also gave a Median IC50 against viruses neutralized with an IC50 <50 µg/ml [26] of 7.52 µg/mL, an IC50 neutralization [27] of over 10 µg/mL and an IC50 neutralization [28] of over 10 µg/mL. For the same binder, the Primary Neutralization Index (B cell culture well 5329 C19) [29] was 6 and the Primary Neutralization Index (B cell culture well 5366 P21) [29] was 6.2.
